Data on two substances can be found in doi:10.1101/2020.12.02.408153.

What all share (assay): SPR
The target in test [1] is SARS-CoV-2 extended S1 subunit (SARS-CoV-2) (UniProt P0DTC2).
The target in test [2] is SARS-CoV-2 spike glycoprotein ectodomain with poly-histidine tag (SARS-CoV-2 | bacteriophage T4) (UniProt P0DTC2).
Test [3] deals with SARS-CoV-2 spike glycoprotein ectodomain with double Strep II tag (SARS-CoV-2 | bacteriophage T4) (UniProt P0DTC2).

Sequence of human angiotensin converting enzyme 2 (Q9BYF1 20-611): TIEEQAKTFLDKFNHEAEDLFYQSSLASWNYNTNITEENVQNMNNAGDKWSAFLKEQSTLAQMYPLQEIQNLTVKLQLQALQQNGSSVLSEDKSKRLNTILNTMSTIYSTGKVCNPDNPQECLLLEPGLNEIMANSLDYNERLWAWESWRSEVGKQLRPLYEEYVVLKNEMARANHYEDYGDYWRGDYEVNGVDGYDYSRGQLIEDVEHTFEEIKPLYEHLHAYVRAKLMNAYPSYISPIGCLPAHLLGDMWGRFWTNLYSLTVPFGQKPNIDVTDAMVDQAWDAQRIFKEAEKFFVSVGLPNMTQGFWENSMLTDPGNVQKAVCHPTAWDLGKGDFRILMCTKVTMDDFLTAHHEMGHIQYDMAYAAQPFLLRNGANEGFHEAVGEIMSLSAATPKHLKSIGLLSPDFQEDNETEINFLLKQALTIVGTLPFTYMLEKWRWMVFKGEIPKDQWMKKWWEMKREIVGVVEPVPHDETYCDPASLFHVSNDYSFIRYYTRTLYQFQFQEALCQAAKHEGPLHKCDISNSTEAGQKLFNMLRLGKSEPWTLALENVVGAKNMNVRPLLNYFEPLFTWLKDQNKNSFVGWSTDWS

Consider LL-37 (peptide), for which the half-inhibitory concentration (IC50) – broadly, the concentration needed to halve the response being measured – in test [1] amounted to 170 nM; in test [3] it was 740 nM. The Kd (in general, the equilibrium constant for the complex coming apart) in test [1] was found to be 200 nM; in test [2], 420 nM; in test [3] it was 410 nM.
In the case of “human angiotensin converting enzyme 2 (from UniProt Q9BYF1-1 20-611) (receptor)”, the dissociation constant (Kd) in test [1] was 610 nM; in test [2], 370 nM; in test [3], 370 nM.
